The results in this text go back to US20230365709A1.

This test has as its target recombinant human CD16A (48R/158F) expressed on the surface of CHO cells (human) (UniProt P08637). Nature of the test: flow cytometry, CHO-huCD16A cells, apparent KD; SD 62.5. A general note: A flow cytometer gives signals particle by particle.

B1: 2scDb-AFc-3 (protein)
chain 1: EVQLQQSGPELVKPGASVKMSCKASGYTFTDYVINWGKQRSGQGLEWIGEIYPGSGTNYYNEKFKAKATLTADKSSNIAYMQLSSLTSEDSAVYFCARRGRYGLYAMDYWGQGTSVTVSSGGSGGSGGSDIVMTQSPATLSLSPGERATLSCRSSKSLQNVNGNTYLYWFQQKPGQSPQLLIYRMSNLNSGVPDRFSGSGSGTEFTLTISSLEPEDFAVYYCMQHLEYPITFGAGTKLEIKGGSGGSGGSGGSGGSGGSGGSEVQLVESGGGLVKPGGSLKLSCAASGYTFTSYVMHWVRQAPGKGLEWIGYINPYNDGTKYNEKFQGRVTISSDKSISTAYMELSSLRSEDTAMYYCARGTYYYGTRVFDYWGQGTLVTVSSGGSGGSGGSDIQMTQTTSSLSASLGDRVTISCRASQDISNYLNWYQQKPDGTVKLLIYYTSRLHSGVPSRFSGSGSGTDYSLTINNLEQEDIATYFCQQGNTRPWTFGGGTKLEIKDKTHTCPPCPAPEFEGGPSVFLFPPKPKDTLMISRTPEVTCVVVAVSHEDPEVKFNWYVDGVEVHNAKTKPREEQYGSTYRVVSVLTVLHQDWLNGKEYKCKVSNKALPAPIEKTISKAKGQPREPQVYTLPPSREEMTKNQVSLWCLVKGFYPSDIAVEWESNGQPENNYKTTPPVLDSDGSFFLYSKLTVDKSRWQQGNVFSCSVMHEALHNHYTQKSLSLSPG
chain 2: EVQLVQSGAEVKKPGASVKVSCKASGYTFTNYYMQWVRQAPGQCLEWMGIINPSGGVTSYAQKFQGRVTMTRDTSTSTVYMELSSLRSEDTAVYYCARGSAYYYDFADYWGQGTLVTVSSGGSGGSGGSDIVMTQSPATLSLSPGERATLSCRSSKSLQNVNGNTYLYWFQQKPGQSPQLLIYRMSNLNSGVPDRFSGSGSGTEFTLTISSLEPEDFAVYYCMQHLEYPITFGAGTKLEIKGGSGGSGGSGGSGGSGGSGGSEVQLVESGGGLVKPGGSLKLSCAASGYTFTSYVMHWVRQAPGKGLEWIGYINPYNDGTKYNEKFQGRVTISSDKSISTAYMELSSLRSEDTAMYYCARGTYYYGTRVFDYWGQGTLVTVSSGGSGGSGGSSYELTQPLSVSVALGQTARITCGGNNIGSKSVHWYQQKPGQAPVLVIYQDKKRPSGIPERFSGSNSGNTATLTISRAQAGDEADYYCQVWDDYIVLFGCGTKLTVLDKTHTCPPCPAPEFEGGPSVFLFPPKPKDTLMISRTPEVTCVVVAVSHEDPEVKFNWYVDGVEVHNAKTKPREEQYGSTYRVVSVLTVLHQDWLNGKEYKCKVSNKALPAPIEKTISKAKGQPREPQVYTLPPSREEMTKNQVSLSCAVKGFYPSDIAVEWESNGQPENNYKTTPPVLDSDGSFFLVSKLTVDKSRWQQGNVFSCSVMHEALHNHYTQKSLSLSPG
As to B1, the Kd came to 528 nM.
